# Measurements taken from publication PMC4381055.
# Columns and labels:
# [1] = target: EcoRNAP sigma70 holoenzyme (Escherichia coli) (UniProt P0A7Z4+P0A8V2+P0A8T7+P0A800+P00579); experiment: stopped-flow Cy3 fluorescence enhancement; settings: scale: fold fluorescence enhancement
# [2] = target: EcoRNAP sigma70 holoenzyme (Escherichia coli, UniProt P0A7Z4;P0A8V2;P0A8T7;P0A800;P00579 1-329;1-1342;1-1407;2-91;1-613); experiment: 25 C, no CarD
Molecule,binding signal [1],apparent K (half saturation) [2] [nM]
"template lacking rrnAP3 promoter, Cy3",0.05,–
"rrnAP3 150 bp template, +2 Cy3 (dsDNA, C6-amine on non-template +2 T) DNA 1: AAAATAGGCGTATCACGAGGCCCTTTCGTCTTCAAGAATTCGTCTTGACTCCATTGCCGGATTTGTATTAGACTGGCAGGGTTGAAGCTTATGTATCACCTGACGTCATGATGAACTCAGAAGTGAAACTACGTATATCCGATGGTAGTG DNA 2: CACTACCATCGGATATACGTAGTTTCACTTCTGAGTTCATCATGACGTCAGGTGATACATAAGCTTCAACCCTGCCAGTCTAATACAAATCCGGCAATGGAGTCAAGACGAATTCTTGAAGACGAAAGGGCCTCGTGATACGCCTATTTT",–,23
